Results on 3 molecules are retold here after US7314724B2, “Therapeutic applications of laminin and laminin-derived protein fragments” (University of Washington, priority 1996, dated 2008).

The target in data set [1] is T1, Aβ (1-40) (Homo sapiens, UniProt P05067).
T1 construct: 2 μg of Aβ (1-40)(Bachem Inc., Torrance, Calif. USA; Lot #WM365); purchased Bachem Inc., Torrance, Calif; Lot #WM365
The data set can be described thus: Thioflavin T fluorometry, Aβ (1-40) amyloid fibril formation. It is filed as biochemical. To be noted: comparison of basement membrane components (FIG. 3), 25 μM Aβ (1-40), 100 nM, 1 hour to 1 week. How it is done: The effects of laminin on Aβ fibrillogenesis was also determined using the previously described method of Thioflavin T fluorometry (Naiki et al, Lab. Invest. 65:104-110, 1991; Levine III, Protein Sci. 2:404-410, 1993; Levine III, Int. J. Exp. Clin. Invest. 2:1-6, 1995; Naiki and Nakakuki, Lab. Invest. 74:374-383, 1996). In this assay, Thioflavin T binds specifically to fibrillar amyloid and this binding produces a fluorescence enhancement at 480 nm that is directly proportional to the amount of amyloid fibrils formed (Naiki et al, Lab. Invest. 65:104-110, 1991; Levine III, Protein Sci. 2:404-410, 1993; Levine III, Int. J. Exp. Clin. Invest. 2:1-6, 1995; Naiki and Nakakuki, Lab. Invest. 74:374-383, 1996). In a first study, the effects of EHS laminin on Aβ (1-40) fibrillogenesis was assessed. For this study, 25 μM of freshly solubilized Aβ (1-40)(Bachem Inc., Torrance, Calif., USA; Lot #WM365) was incubated in microcentrifuge tubes at 37° C. for 1 week (in triplicate), either alone, or in the presence of 100 nM EHS laminin (Sigma Chemical Company, St. Louis, Mo., USA) in 100 mM Tris, 50 mM NaCl, pH 7.0 (TBS). 100 nM of laminin utilized for these studies represented a Aβ:laminin molar ratio of 250:1. 50 μl aliquots were then taken from each tube for analysis at 1 hr, 1 day, 3 days, and 1 week. In a second set of studies, the effects of laminin on Aβ (1 -40) fibril formation was directly compared to other basement membrane components including fibronectin, type IV collagen and perlecan. For these studies, 25 μM of freshly solubilized Aβ (1-40) was incubated in microcentrifuge tubes for 1 week (in triplicate) either alone, or in the presence of 100 nM of EHS perlecan (isolated as previously described)(Castillo et al, J. Biochem. 120:433-444, 1996), fibronectin (Sigma Chemical Company, St. Louis, Mo., USA) or type IV collagen (Sigma Chemical Company, St. Louis, Mo., USA). 50 ul aliquots were then taken for analysis at 1 hour, 1 day, 3 days and 1 week. In a third set of studies, 25 μM of freshly solubilized Aβ (1-40) was incubated in microcentrifuge tubes for 1 week (in triplicate) either alone, or in the presence of increasing concentrations of laminin (i.e. 5 nM, 15 nM, 40 nM and 100 nM). 50 μl aliquots were taken for analysis at 1 hour, 1 day, 3 days and 1 week.
For each determination described above, following each incubation period, Aβ peptides +/− laminin, perlecan, fibronectin or type IV collagen, were added to 1.2 ml of 100 μM Thioflavin T (Sigma Chemical Co., St. Louis, Mo.) in 50 mM phosphate buffer (pH 6.0). Fluorescence emission at 480 nm was measured on a Turner instrument-model 450 fluorometer at an excitation wavelength of 450 nm. For each determination, the fluorometer was calibrated by zeroing in the presence of the Thioflavin T reagent alone, and by seting the 50 ng/ml riboflavin (Sigma Chemical Co., St. Louis, Mo.) in the Thioflavin T reagent to 1800 fluorescence units. All fluorescence determinations were based on these references and any background fluorescence given off by laminin, perlecan, type IV collagen, or fibronectin alone in the presence of the Thioflavin T reagent was always subtracted from all pertinent readings.

In data set [2] the target is T2, biotinylated Aβ (1-40) (Homo sapiens, UniProt P05067).
T2 construct: Aβ (1-40) was biotinylated according to the manufacturer's protocol (Pierce, Rockford, Ill.)
T2 sequence (P05067 672-711 limits assumed): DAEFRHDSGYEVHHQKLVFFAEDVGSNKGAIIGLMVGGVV
In words: Aβ ligand blot of undigested and V8-, trypsin- or elastase-digested EHS laminin. It is filed as binding. To be noted: 2 μM biotinylated Aβ (1-40), SDS-PAGE under non-reducing conditions. The method, then:
For these experiments, Aβ (1-40) was biotinylated according to the manufacturer's protocol (Pierce, Rockford, Ill.). For the ligand studies, intact EHS laminin was left undigested, or digested with V8 or trypsin (Sigma Chemical Company, St. Louis, Mo., USA). More specifically, 2 μg of trypsin or V8 protease in 2 μl of 50 MM Tris-HCl buffer (pH 8.0) were added to 50 μl of laminin (50 μg)(in the same buffer) and incubated overnight at 37° C. The next day, 10 μl of protease-digested laminin (or undigested laminin) was mixed with 10 μl of 2× sodium dodecyl sulfate polyacrylamide gel electrophoresis (SDS-PAGE) sample buffer, and heated for 5 minutes in a boiling water bath. SDS-PAGE was performed according to the method of Laemmli (Laemmli, U.K. Nature 227:680-685, 1970), or according to the method of Schägger and Jagow (Schägger and Jagow, Anal. Biochem. 166:368-379, 1987) using a Mini-Protean II electrophoresis system (Biorad) with precast 4-15% Tris-Glycine or 10-20% tricine polyacrylamide gels, respectively, and under non-reducing conditions. Electrophoresis occurred at 200V for 45 minutes along with pre-stained molecular weight standards. After SDS-PAGE (10-20% tricine or 4-15% Tris-Glycine gels) was performed as described above, the separated laminin and its fragments (total protein of 10 μg/lane) were transferred to polyvinylidine difluoride membrane (PVDF) using a Mini transblot electrophoresis transfer cell (Biorad, Hercules, Calif., U.S.A.). Electrotransfer was performed at 100V for 2 hours. Following transfer, membranes were rinsed with methanol and dried. The fragment(s) of laminin involved in binding to Aβ were then detected by using biotinylated-Aβ (1-40), as described above. Blots were probed for 2 hours with 2 μM biotinylated Aβ (1-40) in TTBS. The membranes were then rinsed three times (10 seconds each) with TTBS, probed for 30 minutes with strepavidin alkaline phosphatase conjugate (Vectastain), rinsed again (as described above), and followed by the addition of an alkaline phosphatase substrate solution (Vectastain). Following color development, the reaction was stopped by flushing the membranes with double distilled water. In the next set of studies, we determined whether small fragment(s) of laminin generated by elastase digestion would bind to Aβ. […] For these experiments, Aβ (1-40) was biotinylated according to the manufacturer's protocol (Pierce, Rockford, Ill.). For the ligand studies, intact EHS laminin was left undigested, or digested with elastase (Sigma Chemical Company, St. Louis, Mo., USA). For elastase digestion, 2 μg of elastase in 8 μl of 50 mM Tris-HCl buffer (pH 8.0) was added to 50 μl of laminin (50 μg)(in the same buffer) and incubated for 1.5 hours or 2.5 hours at 37° C. In addition, as a control, 2 μg of elastase in 50 μl of 50 mM Tris-HCl buffer (pH 8.0) was incubated for 2.5 hours at 37° C. Following the appropriate incubation times as described above, 10 μl of each of the above incubations were mixed with 10 μl of 2× SDS-PAGE electrophoresis sample buffer, and heated for 5 minutes in a boiling water bath. SDS-PAGE was performed according to the method of Laemmli (Laemmli, Nature 227:680-685, 1970) using a Mini-Protean II electrophoresis system with precast 4-15% Tris-Glycine polyacrylamide gels, and under non-reducing conditions. Electrophoresis occurred at 200V for 45 minutes along with pre-stained molecular weight standards (Biorad). After SDS-PAGE was performed as described above, the separated laminin fragments were transferred to PVDF using a Mini transblot electrophoresis transfer cell (Millipore, Bedford, Mass., U.S.A.). Electrotransfer was performed at 100V for 2 hours. Following transfer, membranes were rinsed with methanol, dried and cut into two equal parts which were used for Aβ ligand blotting, or Coomassie blue staining and subsequent amino acid sequencing. The fragment(s) of laminin involved in binding to Aβ were then detected by using biotinylated-Aβ (1-40), as described above. […]

Entries after “also recorded” stand apart in the source; their conditions may differ.

T1 sequence (P05067 672-711 limits assumed): as above

With “perlecan: EHS perlecan, basement membrane component used as comparison [reference compound]”, the “effect on Aβ (1-40) fibrillogenesis, in words” value was “not effective inhibitors” in data set [1]; “significantly accelerate Aβ (1-40) amyloid formation at 1 day and 3 days” in data set [1] (listed as Perlecan).
On to fibronectin [reference compound], for which, in data set [1], the “effect on Aβ (1-40) fibrillogenesis, in words” value is “not effective inhibitors; also recorded: only showed significant inhibition of Aβ (1-40) fibrillogenesis at 1 week”.

B1: ˜55 kilodalton (kDa) laminin fragment: ˜55 kDa Aβ-binding fragment from V8 or elastase digested mouse EHS laminin; within globular repeats of the laminin A chain (E3 region) (protein)
chain: HREHGELPPEPPTLPQPELCAVDTAPGYVAGAHQFGLSQNSHLVLPLNQSDVRKRLQVQLSIRTFASSGLIYYVAHQNQMDYATLQLQEGRLHFMFDLGKGRTKVSHPALLSDGKWHTVKTEYIKRKAFMTVDGQESPSVTVVGNATTLDVERKLYLGGLPSHYRARNIGTITHSIPACIGEIMVNGQQLDKDRPLSASAVDRCYVVAQEGTFFEGSGYAALVKEGYKVRLDLNITLEFRTTSKNGVLLGISSAKVDAIGLEIVDGKVLFHVNNGAGRITATYQPRAARALCDGKWHTLQAHKSKHRIVLTVDGNSVRAESPHTHSTSADTNDPIYVGGYPAHIKQNCLSSRASFRGCVRNLRLSRGSQVQSLDLSRAFDLQGVFPHSCPGPEP
For B1, the “interaction with biotinylated Aβ (1-40) on ligand blot, in words” value in data set [2] is “interact with biotinylated Aβ (1-40)”; in data set [2] (listed as 55 kDa laminin fragment) it was “positive Aβ binding interaction”; in data set [2] (listed as ˜55 kDa), “interacted with Aβ (1-40)”; in data set [2] (listed as ˜55 kilodalton fragment) it was “interacts with Aβ”; in data set [2] (listed as ˜55 kilodalton laminin fragment), “binds biotinylated Aβ”.
